This is an account of results in US20160185837A1, “GIP AND GLP-1 RECEPTOR DUAL-AGONISTS FOR THE TREATMENT OF DIABETES” (Medimmune Limited, priority 2013, published 2016).

Numbering of substitutions follows the chain as printed. “And” between values parts separate entries of the source, which are not always exact repeats. Equal values may be shown once. Bounds are passed on as bounds.

Sequences and labels used below:
T1: mouse GIP receptor (mouse) (UniProt Q0P543)
T1 sequence (looked up): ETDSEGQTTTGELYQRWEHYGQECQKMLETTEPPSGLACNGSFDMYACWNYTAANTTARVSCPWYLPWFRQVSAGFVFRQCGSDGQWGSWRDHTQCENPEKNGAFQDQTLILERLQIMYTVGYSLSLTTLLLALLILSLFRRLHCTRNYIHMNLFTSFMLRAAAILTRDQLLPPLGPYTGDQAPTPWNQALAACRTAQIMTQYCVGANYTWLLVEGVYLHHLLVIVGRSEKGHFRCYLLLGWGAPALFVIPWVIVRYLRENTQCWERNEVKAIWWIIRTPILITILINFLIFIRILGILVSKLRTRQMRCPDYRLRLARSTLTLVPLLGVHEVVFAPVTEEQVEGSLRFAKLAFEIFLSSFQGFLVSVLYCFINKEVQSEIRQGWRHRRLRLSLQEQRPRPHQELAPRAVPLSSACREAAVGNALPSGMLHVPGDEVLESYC

T2: rat GIP receptor (rat) (UniProt P43219)
T2 sequence (looked up): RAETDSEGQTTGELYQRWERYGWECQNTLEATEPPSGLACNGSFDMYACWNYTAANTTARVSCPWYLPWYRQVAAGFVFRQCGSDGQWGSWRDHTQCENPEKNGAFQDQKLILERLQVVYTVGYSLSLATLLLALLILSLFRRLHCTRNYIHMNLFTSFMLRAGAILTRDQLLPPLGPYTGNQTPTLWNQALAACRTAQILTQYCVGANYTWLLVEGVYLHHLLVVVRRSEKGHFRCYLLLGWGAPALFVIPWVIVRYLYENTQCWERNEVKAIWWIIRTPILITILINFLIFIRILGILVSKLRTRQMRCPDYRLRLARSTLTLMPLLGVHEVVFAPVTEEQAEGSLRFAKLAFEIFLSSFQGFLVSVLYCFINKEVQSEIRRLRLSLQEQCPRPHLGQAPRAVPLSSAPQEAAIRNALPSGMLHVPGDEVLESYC

T3: human GIP receptor (human) (UniProt P48546)
T3 sequence (looked up): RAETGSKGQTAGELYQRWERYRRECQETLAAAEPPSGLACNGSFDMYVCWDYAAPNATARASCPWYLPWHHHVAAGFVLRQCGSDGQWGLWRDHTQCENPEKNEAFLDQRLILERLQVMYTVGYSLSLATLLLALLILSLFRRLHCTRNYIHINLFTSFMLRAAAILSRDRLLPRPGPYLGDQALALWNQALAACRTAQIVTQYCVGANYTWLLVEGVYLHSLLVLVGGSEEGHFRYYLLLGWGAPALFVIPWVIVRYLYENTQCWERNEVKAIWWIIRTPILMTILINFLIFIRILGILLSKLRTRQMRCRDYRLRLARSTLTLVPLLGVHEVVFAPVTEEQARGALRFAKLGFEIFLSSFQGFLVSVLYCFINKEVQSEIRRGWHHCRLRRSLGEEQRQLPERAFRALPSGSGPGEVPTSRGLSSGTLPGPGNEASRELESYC

B1: IP413 (Fc fusion)
chain: YSEGTFTSDYSKLLEEEASRLFIEWLLAGGGGGGSGGGGSGGGGSGGGGSATHTCPPC
B2: IP018 (Fc fusion)
chain: YSEGTFISDYSIAMDKIHQQDFVNWLLAQKAAAGGSGSTASSGSGSATGGGGAATHTCPPCPAPEF
B3: IP368 (Fc fusion)
chain: YSEGTFTSDYRQAIDRQAIDEFIAWLLKGGGGGGGSGGGGSGGGGSGGGGSACPPC
B4: IP226 (Fc fusion)
chain: YSEGTFTSDVSKLLERQAIDEFIAWLLKGGAAAGGSGSTASSGSGSATGGGGAATHTCPPCPAPEF
B5: IP250 (Fc fusion)
chain: B4 chain with K12I, L13A, L14M, E15D
B6: IP330 (Fc fusion)
chain: YSEGTFTSDYSKLLERQAIDEFIALLLKGGGGGGGSGGGGSGGGGSGGGGSGGGGSGGGGSA
B7: IP352 (Fc fusion)
chain: B6 chain with L25M, G30E
B8: IP347 (Fc fusion)
chain: B6 chain with L25I
B9: IP348 (Fc fusion)
chain: B6 chain with L25S
B10: IP349 (Fc fusion)
chain: B6 chain with L25N
B11: IP350 (Fc fusion)
chain: B6 chain with L25G
B12: IP346 (Fc fusion)
chain: B6 chain with L25F
B13: IP331 (Fc fusion)
chain: B6 chain with L25D
B14: IP364 (Fc fusion)
chain: YSEGTFTSDFSKLLERQAIDEFIAWLLKGGAAAGGSGSTASSGSGSATGGGGAATHTCPPC
B15: IP367 (Fc fusion)
chain: B14 chain with F10Y, S11R, K12I, L14K
B16: IP366 (Fc fusion)
chain: B14 chain with F10Y, S11R, K12M, L14K
B17: IP343 (Fc fusion)
chain: YSEGTFTSDYAAAAERQAIDAFAAWLAAAAGGGGGSGGGGSGGGGSGGGGSA
B18: IP223 (Fc fusion)
chain: B4 chain with K12S, L13Y, L14M, R16E, Q17E

The target of one assay is T1, mouse GIP receptor (mouse). The assay is described as follows: cell-based or functional assay.
As for B1, the cAMP EC50 was 3.7 nM.
As for B2, the cAMP EC50, Batch 1 amounted to 0.022 nM.
B3 yielded a cAMP EC50 of 1.3 nM.
Consider B4, for which the cAMP EC50 turned out to be 7.5 nM.
On the same count and under the same terms, the result for B5 reads 35 nM; that for B6, 0.45 nM; that for B7, 0.52 nM.
Same read-out and setting: with B8 the figure was 0.85 nM; with B9, 1.4 nM; with B10, 0.55 nM.
In the case of B11, the cAMP EC50 stood at 1.3 nM.
For B12, the cAMP EC50 was 0.16 nM.
In turn, B13 showed a cAMP EC50 of 4 nM.
With B14, the cAMP EC50 was 0.5 nM.
B15 registered a cAMP EC50 of 0.031 nM.
The molecule B16 had a cAMP EC50 of 0.056 nM.
Same read-out and setting: the result for B17 reads 880 nM.

The next assay deals with T2, rat GIP receptor (rat). The assay is described as follows: cell-based or functional assay.
The molecule B1 gave a cAMP EC50 greater than 113 nM.
For the molecule B2, the cAMP EC50, Batch 1 turned out to be 0.0076 nM.
Consider B3, for which the cAMP EC50 is 0.22 nM.
With B4, the cAMP EC50 turned out to be 0.27 nM.
B5 showed a cAMP EC50 of 5.3 nM.
Still for that read-out and setting: the result for B18 reads 72 nM.
With B6, the cAMP EC50 was found to be 0.023 nM.
B7 had a cAMP EC50 of 0.0089 nM.
Turning to B8, the cAMP EC50 was determined as 0.024 nM.
On the same count and under the same terms, the result for B9 reads 0.024 nM.
Same read-out and setting: the result for B10 reads 0.014 nM; that for B11, 0.024 nM.
The molecule B12 came in with a cAMP EC50 of 0.01 nM.
In turn, B13 yielded a cAMP EC50 of 0.06 nM.
For B14, the cAMP EC50 is 0.02 nM.
B15 had a cAMP EC50 of 0.0099 nM.
With B16, the cAMP EC50 was found to be 0.016 nM.
The same measure, in the same setting: the result for B17 reads 110 nM.

The target in a further assay is human glucagon receptor (human) (UniProt P47871). The assay is described as follows: cell-based or functional assay.
Chain of human glucagon receptor (human) (P47871 26-477): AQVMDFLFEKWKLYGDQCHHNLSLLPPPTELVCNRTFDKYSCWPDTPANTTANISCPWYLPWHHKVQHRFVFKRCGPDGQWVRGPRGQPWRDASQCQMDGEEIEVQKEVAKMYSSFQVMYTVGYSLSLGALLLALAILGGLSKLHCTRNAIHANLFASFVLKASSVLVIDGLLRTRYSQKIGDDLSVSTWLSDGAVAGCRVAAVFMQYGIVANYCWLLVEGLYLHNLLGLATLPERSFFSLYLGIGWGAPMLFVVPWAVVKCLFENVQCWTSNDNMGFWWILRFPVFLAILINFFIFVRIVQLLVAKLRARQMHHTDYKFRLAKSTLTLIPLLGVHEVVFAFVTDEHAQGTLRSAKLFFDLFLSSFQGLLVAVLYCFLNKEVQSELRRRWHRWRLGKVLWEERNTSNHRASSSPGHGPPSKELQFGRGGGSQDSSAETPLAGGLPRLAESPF
On to B1, for which the cAMP EC50 worked out at 7.6 nM.
Regarding B2, the cAMP EC50 is greater than 317 nM; the cAMP EC50, Batch 2 turned out to be 480 nM; the cAMP EC50, Batch 3 was 720 nM.
Regarding B3, the cAMP EC50 was greater than 4860 nM.
In the case of B6, the cAMP EC50 was determined as 1100 nM.
The molecule B7 had a cAMP EC50 of 620 nM.
Still for that read-out and setting: the result for B8 reads greater than 1490 nM.
On to B9, for which the cAMP EC50 is greater than 907 nM.
As for B10, the cAMP EC50 came out at 1200 nM.
On to B11, for which the cAMP EC50 is greater than 1360 nM.
In turn, B12 had a cAMP EC50 of 180 nM.
With B13, the cAMP EC50 is greater than 1950 nM.
On to B14, for which the cAMP EC50 turned out to be 610 nM.
B15 registered a cAMP EC50 greater than 1300 nM.
B16 gave a cAMP EC50 greater than 10200 nM.
For the molecule B17, the cAMP EC50 is greater than 2070 nM.

For another assay, the target named is human GLP-1 receptor (human) (UniProt P43220). The assay is described as follows: cell-based or functional assay.
Chain of human GLP-1 receptor (human) (P43220 24-463): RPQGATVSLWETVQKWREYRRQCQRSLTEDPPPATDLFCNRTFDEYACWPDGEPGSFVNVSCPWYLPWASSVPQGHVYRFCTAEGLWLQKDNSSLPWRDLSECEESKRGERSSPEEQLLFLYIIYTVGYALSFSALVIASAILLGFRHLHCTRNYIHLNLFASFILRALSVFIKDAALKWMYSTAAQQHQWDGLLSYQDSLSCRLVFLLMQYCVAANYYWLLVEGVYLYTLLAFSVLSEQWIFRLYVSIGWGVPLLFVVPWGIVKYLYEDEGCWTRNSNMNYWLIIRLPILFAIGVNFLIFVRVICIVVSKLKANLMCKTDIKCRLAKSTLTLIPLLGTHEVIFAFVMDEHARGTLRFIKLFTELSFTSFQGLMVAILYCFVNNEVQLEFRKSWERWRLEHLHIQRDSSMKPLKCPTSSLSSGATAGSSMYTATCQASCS
Regarding B1, the cAMP EC50 came to 0.19 nM.
B2 displayed a cAMP EC50 greater than 317 nM; a cAMP EC50, Batch 2 of 4200 nM; a cAMP EC50, Batch 3 greater than 6350 nM.
As to B3, the cAMP EC50 amounted to 230 nM.
With B4, the cAMP EC50 was found to be 0.2 nM.
On to B5, for which the cAMP EC50 came to 1.1 nM.
As for B18, the cAMP EC50 was 16 nM.
For B6, the cAMP EC50 amounted to 0.66 nM.
Same read-out and setting: with B7 the figure was 0.13 nM; with B8, 0.75 nM.
On to B9, for which the cAMP EC50 is 0.29 nM.
The molecule B10 registered a cAMP EC50 of 0.16 nM.
B11: the cAMP EC50 was determined as 0.86 nM.
Turning to B12, the cAMP EC50 came to 0.08 nM.
In turn, B13 yielded a cAMP EC50 of 2.6 nM.
The molecule B14 displayed a cAMP EC50 of 0.18 nM.
B15: the cAMP EC50 was found to be 4.4 nM.
Consider B16, for which the cAMP EC50 was found to be 6.1 nM.
B17 had a cAMP EC50 of 960 nM.

For another assay, the target named is T3, human GIP receptor (human). The assay is described as follows: cell-based or functional assay.
On to B2, for which the cAMP EC50, Batch 1 turned out to be 0.0026 nM; the cAMP EC50, Batch 2 was 0.0051 nM and 0.0093 nM; the cAMP EC50, Batch 3 stood at 0.0064 nM; the cAMP EC50, hGIPr (C3) line amounted to 0.8 nM.
For B3, the cAMP EC50 was 0.2 nM.
With B4, the cAMP EC50 worked out at 0.025 nM.
On the same count and under the same terms, with B5 the figure was 0.11 nM.
On the same count and under the same terms, with B18 the figure was 2.5 nM; with B6, 0.009 nM.
The molecule B7 gave a cAMP EC50 of 0.0069 nM.
Still for that read-out and setting: the result for B8 reads 0.013 nM; that for B9, 0.011 nM; that for B10, 0.0079 nM.
The molecule B11 showed a cAMP EC50 of 0.013 nM.
As to B12, the cAMP EC50 amounted to 0.011 nM and the cAMP EC50, hGIPr (C3) line stood at 0.16 nM.
In turn, B13 returned a cAMP EC50 of 0.013 nM.
Consider B14, for which the cAMP EC50 came out at 0.0085 nM.
Molecule B15 had a cAMP EC50 of 0.057 nM and a cAMP EC50, hGIPr (C3) line of 13 nM.
As for B16, the cAMP EC50 is 0.14 nM.
In turn, B17 showed a cAMP EC50 of 72 nM.

The target of a further assay is rat GLP-1 receptor (rat) (UniProt P32301). The assay is described as follows: cell-based or functional assay.
Chain of rat GLP-1 receptor (rat) (P32301 22-463): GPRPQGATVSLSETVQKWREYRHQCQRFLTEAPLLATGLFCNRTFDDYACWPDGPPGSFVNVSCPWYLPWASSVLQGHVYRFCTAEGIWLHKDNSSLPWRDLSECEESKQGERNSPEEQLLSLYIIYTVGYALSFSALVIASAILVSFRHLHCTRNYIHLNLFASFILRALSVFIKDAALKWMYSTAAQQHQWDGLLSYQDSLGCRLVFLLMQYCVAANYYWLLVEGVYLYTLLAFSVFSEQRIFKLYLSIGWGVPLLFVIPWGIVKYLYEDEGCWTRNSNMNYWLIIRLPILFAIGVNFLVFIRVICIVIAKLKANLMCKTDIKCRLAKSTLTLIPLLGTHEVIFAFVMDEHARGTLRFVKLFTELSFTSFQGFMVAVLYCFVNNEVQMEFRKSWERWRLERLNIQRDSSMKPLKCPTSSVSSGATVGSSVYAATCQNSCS
Regarding B1, the cAMP EC50 is 0.048 nM.
For the molecule B3, the cAMP EC50 was 370 nM.
B4: the cAMP EC50 is 0.061 nM.
Same read-out and setting: with B5 the figure was 2.2 nM; with B18, 18 nM; with B6, 0.089 nM.
As to B7, the cAMP EC50 worked out at 0.0076 nM.
The molecule B8 registered a cAMP EC50 of 0.087 nM.
B9 yielded a cAMP EC50 of 0.037 nM.
As to B10, the cAMP EC50 worked out at 0.059 nM.
B11 displayed a cAMP EC50 of 0.21 nM.
Molecule B12 showed a cAMP EC50 of 0.017 nM.
On to B13, for which the cAMP EC50 was 0.31 nM.
With B14, the cAMP EC50 was 0.058 nM.
In turn, B15 gave a cAMP EC50 of 8 nM.
Still for that read-out and setting: the result for B16 reads 14 nM; that for B17, 360 nM.

The target of a further assay is mouse GLP-1 receptor (mouse) (UniProt O35659). The assay is described as follows: cell-based or functional assay.
Chain of mouse GLP-1 receptor (mouse) (O35659 22-463): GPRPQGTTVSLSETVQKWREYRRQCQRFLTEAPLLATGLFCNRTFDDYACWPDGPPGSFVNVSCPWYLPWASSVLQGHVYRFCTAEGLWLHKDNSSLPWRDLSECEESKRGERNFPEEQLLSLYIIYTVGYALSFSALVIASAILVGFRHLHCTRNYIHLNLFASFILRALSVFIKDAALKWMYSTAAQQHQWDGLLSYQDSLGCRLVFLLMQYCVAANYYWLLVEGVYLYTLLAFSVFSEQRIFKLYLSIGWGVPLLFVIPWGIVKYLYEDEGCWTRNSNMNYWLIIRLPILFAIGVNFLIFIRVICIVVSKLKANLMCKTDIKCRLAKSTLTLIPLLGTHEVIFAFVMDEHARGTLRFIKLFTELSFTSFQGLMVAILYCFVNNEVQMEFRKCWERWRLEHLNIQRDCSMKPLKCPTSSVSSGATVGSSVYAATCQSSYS
As to B1, the cAMP EC50 was 8.9 nM.
On to B3, for which the cAMP EC50 is greater than 4860 nM.
The molecule B4 showed a cAMP EC50 of 1 nM.
B5 returned a cAMP EC50 of 22 nM.
B18 showed a cAMP EC50 of 80 nM.
B6: the cAMP EC50 was determined as 5.5 nM.
Turning to B7, the cAMP EC50 came out at 3.6 nM.
In turn, B8 had a cAMP EC50 of 2.5 nM.
Still for that read-out and setting: the result for B9 reads 0.89 nM; that for B10, 0.86 nM.
For B11, the cAMP EC50 amounted to 2.7 nM.
For the molecule B12, the cAMP EC50 was 0.29 nM.
B13 yielded a cAMP EC50 of 22 nM.
In turn, B14 returned a cAMP EC50 of 0.69 nM.
In turn, B15 came in with a cAMP EC50 of 390 nM.
On the same count and under the same terms, with B16 the figure was 100 nM; with B17, greater than 2070 nM.
